Key:
[1] = biological target: T1, human FLi1 protein with N-terminal FLAG tag (human, UniProt Q01543 1-452, limits assumed); assay: Western blot of transiently expressed FLAG-tagged protein
T1 construct: not shown: N-terminal FLAG tag
T1 sequence (looked up): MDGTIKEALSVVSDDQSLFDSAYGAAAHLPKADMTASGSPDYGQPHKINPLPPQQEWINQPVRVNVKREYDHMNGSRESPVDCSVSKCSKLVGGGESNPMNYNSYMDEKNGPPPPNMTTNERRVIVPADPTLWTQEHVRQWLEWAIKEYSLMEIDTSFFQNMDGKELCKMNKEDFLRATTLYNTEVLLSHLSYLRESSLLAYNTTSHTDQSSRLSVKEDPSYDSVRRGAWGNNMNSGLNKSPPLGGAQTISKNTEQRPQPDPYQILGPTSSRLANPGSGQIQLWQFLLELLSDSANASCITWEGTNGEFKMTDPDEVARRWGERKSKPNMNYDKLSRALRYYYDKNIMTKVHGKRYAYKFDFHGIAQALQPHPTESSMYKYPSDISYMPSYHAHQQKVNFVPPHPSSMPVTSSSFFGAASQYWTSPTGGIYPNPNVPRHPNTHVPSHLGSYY
Procedure: Therefore, the 9FY antibody was tested to see if it can discriminate between human ERG3 and the human FLi1 protein using Western blot assays. In this assay, transiently expressed human ERG3 (encoded by TMPRSS2/ERG3 construct) or human FLi1 protein was evaluated with the 9FY antibody.

[2] = biological target: T2, human ERG3 (wild type ERG3 protein, 53 kDa) (human, UniProt P11308 1-479); assay: sandwich ELISA on ERG3 protein lysate, 9FY titrated by fold dilution, absorbance at 450 nm; competitor: immunizing polypeptide
T2 construct: Expressed heterologously in HEK-293 cells (pIRES-EGFP(CMV)-ERG3), as protein lysate in the ELISA, or in LNCaP cells by Ad-ERG3 adenovirus; also called ERG3 antigen
T2 sequence: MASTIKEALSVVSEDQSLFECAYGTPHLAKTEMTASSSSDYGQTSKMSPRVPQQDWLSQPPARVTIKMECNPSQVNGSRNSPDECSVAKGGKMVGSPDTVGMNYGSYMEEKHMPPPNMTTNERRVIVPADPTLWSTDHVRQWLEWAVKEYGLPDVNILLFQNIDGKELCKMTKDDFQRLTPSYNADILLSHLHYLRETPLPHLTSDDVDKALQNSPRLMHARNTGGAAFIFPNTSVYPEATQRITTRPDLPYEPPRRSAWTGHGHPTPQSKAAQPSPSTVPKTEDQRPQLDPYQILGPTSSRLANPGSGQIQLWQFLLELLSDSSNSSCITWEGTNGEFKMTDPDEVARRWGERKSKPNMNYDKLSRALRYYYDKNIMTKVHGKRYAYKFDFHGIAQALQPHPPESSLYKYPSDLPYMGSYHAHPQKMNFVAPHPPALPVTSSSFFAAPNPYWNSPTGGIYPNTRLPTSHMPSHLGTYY

[3] = biological target: T3, immunizing polypeptide (amino acids 42-66 of SEQ ID NO: 1) (human); assay: direct ELISA, peptides plated at 1 to 1000 ng/mL (x axis 'ERG, ng/mL', log scale), probed with 9FY at 1:10,000, absorbance at 450 nm
T3 construct: Chemically synthesized; also called ERG 42-66 polypeptide
T3 peptide: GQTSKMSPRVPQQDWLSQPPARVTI
Procedure: Various concentrations of the immunizing polypeptide and two control polypeptides were plated in wells for ELISA and were probed with 1:10,000 dilution of 9FY antibody. Y-axis indicates absorbance values at 450 nm. On the X-axis the log 10 concentration of the ERG immunizing polypeptide and control polypeptides is shown in ng/ml. […] In sandwich ELISA assay, ERG3 protein lysates were plated in multi-well format plates and were assayed with various concentrations of 9FY antibody in the presence (white bar) or absence of the immunizing polypeptide (shaded bar). Fold dilution is marked on the X-axis. Antibody titration values are marked by shaded bars.
In an ELISA assay, we assessed the sensitivity and specificity of the 9FY antibody measuring the titer of various concentrations of the immunizing polypeptide (i.e. amino acids 42-66 of SEQ ID NO: 1). For direct ELISA, plates were first coated with 100 μl of ERG3 antigen at 1 ng/ml, 10 ng/ml, 100 ng/ml and 1 μg/ml and incubated for 16 h at 4° C. on a shaker before washing the plate five times with PBSt (300 μl/well). […] Absorbance was measured at 450 nm on a […]® Ascent (Thermo Scientific, Waltham, Mass.) ELISA plate reader according to the manufacturer's recommendation and the absorbance were plotted against antibody dilution. […]

B1: 9FY antibody (monoclonal antibody produced by the hybridoma clone 9FY) (antibody, V domains shown)
VH: QIQLVQSGPDLKKPGETVKISCKASGYTFTNYGINWVKQAPGKGFKWMGWIDTYTGEPTYVDDFKGRFVFSLETSASTAYLQINNLKNEDTATYFCVRKRAYDYEIYWGQGTPLTVSS
VL: ENVLTQSPAIMSASLGEKVTLSCRASSSVYYMFWYQQKSDASPKLWIYYTSNLAPGVPARFSGSGSGNSYSLTISSVEGEDAATYYCLQFSTSPWTFGGGTKLEIKR
notes: Mouse (Balb/C) hybridoma antibody purified from ascites over Protein G; sub-type determined to be IgG; also called ERG-MAb; 9FY monoclonal antibody
[1]
  binding result: no binding
[2]
  binding result: binds
[3]
  binding result: binds

From patent US20140370023A1 (HENRY M JACKSON FOUNDATION FOR THE ADVANCEMENT OF MILITARY …, published 2014)
